Substitutions are numbered along the chain they refer to. Where “and” joins values, the source holds several entries; their conditions need not be identical. Equal values may be shown once.
B1: 62A, 72A (protein, listed as Rattus norvegicus)
chain: AFDGTWKVDRNENYEKFMEKMGINVVKRKLGAHDNLKLTITQEGNKFTVKESSNFRNIDVVAELGVDFAYSAADGTELTGTWTMEGNKLVGKFKRVDNGKELIAVREISGNELIQTYTYEGVEAKRIFKKE
modifications: PEPTIDE (1)...(131) wild-type rat intestinal fatty acid binding protein
B2: 62C, 72A (protein, listed as Rattus norvegicus)
chain: B1 chain with A62C
modifications: PEPTIDE (1)...(131) wild-type rat intestinal fatty acid binding protein
B3: 62D, 72A (protein, listed as Rattus norvegicus)
chain: B1 chain with A62D
modifications: PEPTIDE (1)...(131) wild-type rat intestinal fatty acid binding protein
B4: 62E, 72A (protein, listed as Rattus norvegicus)
chain: B1 chain with A62E
modifications: PEPTIDE (1)...(131) wild-type rat intestinal fatty acid binding protein
B5: 62G, 72A (protein, listed as Rattus norvegicus)
chain: B1 chain with A62G
modifications: PEPTIDE (1)...(131) wild-type rat intestinal fatty acid binding protein
B6: 62H, 72A (protein, listed as Rattus norvegicus)
chain: B1 chain with A62H
modifications: PEPTIDE (1)...(131) wild-type rat intestinal fatty acid binding protein
B7: 62I, 72A (protein, listed as Rattus norvegicus)
chain: B1 chain with A62I
modifications: PEPTIDE (1)...(131) wild-type rat intestinal fatty acid binding protein
B8: 62N, 72A (protein, listed as Rattus norvegicus)
chain: B1 chain with A62N
modifications: PEPTIDE (1)...(131) wild-type rat intestinal fatty acid binding protein
B9: 62T, 72A (protein, listed as Rattus norvegicus)
chain: B1 chain with A62T
modifications: PEPTIDE (1)...(131) wild-type rat intestinal fatty acid binding protein
B10: 68A, 72A (protein, listed as Rattus norvegicus)
chain: B1 chain with A62F, F68A
modifications: PEPTIDE (1)...(131) wild-type rat intestinal fatty acid binding protein
B11: 68C, 72A (protein, listed as Rattus norvegicus)
chain: B1 chain with A62F, F68C
modifications: PEPTIDE (1)...(131) wild-type rat intestinal fatty acid binding protein
B12: 68D, 72A (protein, listed as Rattus norvegicus)
chain: B1 chain with A62F, F68D
modifications: PEPTIDE (1)...(131) wild-type rat intestinal fatty acid binding protein
B13: 102Y, 72A (protein, listed as Rattus norvegicus)
chain: B1 chain with A62F, L102Y
modifications: PEPTIDE (1)...(131) wild-type rat intestinal fatty acid binding protein
B14: 68E, 72A (protein, listed as Rattus norvegicus)
chain: B1 chain with A62F, F68E
modifications: PEPTIDE (1)...(131) wild-type rat intestinal fatty acid binding protein
B15: 68G, 72A (protein, listed as Rattus norvegicus)
chain: B1 chain with A62F, F68G
modifications: PEPTIDE (1)...(131) wild-type rat intestinal fatty acid binding protein
B16: 68I, 72A (protein, listed as Rattus norvegicus)
chain: B1 chain with A62F, F68I
modifications: PEPTIDE (1)...(131) wild-type rat intestinal fatty acid binding protein
B17: 68L, 72A (protein, listed as Rattus norvegicus)
chain: B1 chain with A62F, F68L
modifications: PEPTIDE (1)...(131) wild-type rat intestinal fatty acid binding protein
B18: 68M, 72A (protein, listed as Rattus norvegicus)
chain: B1 chain with A62F, F68M
modifications: PEPTIDE (1)...(131) wild-type rat intestinal fatty acid binding protein
B19: 68N, 72A (protein, listed as Rattus norvegicus)
chain: B1 chain with A62F, F68N
modifications: PEPTIDE (1)...(131) wild-type rat intestinal fatty acid binding protein
B20: 68Q, 72A (protein, listed as Rattus norvegicus)
chain: B1 chain with A62F, F68Q
modifications: PEPTIDE (1)...(131) wild-type rat intestinal fatty acid binding protein
B21: 68S, 72A (protein, listed as Rattus norvegicus)
chain: B1 chain with A62F, F68S
modifications: PEPTIDE (1)...(131) wild-type rat intestinal fatty acid binding protein
B22: 68T, 72A (protein, listed as Rattus norvegicus)
chain: B1 chain with A62F, F68T
modifications: PEPTIDE (1)...(131) wild-type rat intestinal fatty acid binding protein
B23: 68V, 72A (protein, listed as Rattus norvegicus)
chain: B1 chain with A62F, F68V
modifications: PEPTIDE (1)...(131) wild-type rat intestinal fatty acid binding protein

Assay: Probe fluorescence ratio response to oleic acid relative to ADIFAB2
Assay type: binding
Conditions: response relative to ADIFAB2
Procedure, shortened: (§1)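 Each fatty acid's response was expressed relative to ADIFAB2, the rI-FABP-L72A probe, as ΔR/ΔRreference. ΔR is the change in the background-corrected two-wavelength intensity ratio R=Fλ1/Fλ2 from its analyte-free baseline R0. Emission was read near about 420-480 nm for unbound and about 495-580 nm for FFA-bound probe.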

Molecule | DR/DR OA
B1 | 0.86
B2 | 1.29
B3 | 1.57 and 1.574
B4 | 1.52
B5 | 1.46
B6 | 1.40
B7 | 1.37
B8 | 1.37
B9 | 1.00
B10 | 0.19
B11 | 0.29
B12 | 1.13
B13 | 0.86
B14 | 0.91
B15 | 0.21
B16 | 0.39
B17 | 0.55 and 0.547
B18 | 0.35
B19 | 0.63
B20 | 0.45
B21 | 0.14
B22 | 0.13
B23 | 0.25

Assay: Probe fluorescence ratio response to linolenic acid relative to ADIFAB2
Assay type: binding
Conditions: response relative to ADIFAB2
Procedure, shortened: as §1

Molecule | DR/DR LNA
B1 | 1.08
B2 | 1.31
B3 | 1.58 and 1.576
B4 | 1.52
B5 | 1.44
B6 | 1.44
B7 | 1.38
B8 | 1.40
B9 | 0.96
B10 | 0.19
B11 | 0.25
B12 | 1.23
B13 | 0.73 and 0.732
B14 | 0.92
B15 | 0.18
B16 | 0.36
B17 | 0.52
B18 | 0.35
B19 | 0.60
B20 | 0.38
B21 | 0.14
B22 | 0.12
B23 | 0.22

Assay: Probe fluorescence ratio response to linoleic acid relative to ADIFAB2
Assay type: binding
Conditions: response relative to ADIFAB2
Procedure, shortened: as §1

Molecule | DR/DR LA
B1 | 0.96
B2 | 1.31
B3 | 1.60 and 1.598
B4 | 1.49
B5 | 1.44
B6 | 1.40
B7 | 1.36
B8 | 1.34
B9 | 1.02
B10 | 0.18
B11 | 0.12
B12 | 1.23
B13 | 0.82 and 0.818
B14 | 0.96
B15 | 0.17
B16 | 0.37
B17 | 0.53
B18 | 0.34
B19 | 0.67
B20 | 0.43
B21 | 0.14
B22 | 0.11
B23 | 0.23

Assay: Probe fluorescence ratio response to palmitic acid relative to ADIFAB2
Assay type: binding
Conditions: response relative to ADIFAB2
Procedure, shortened: as §1

Molecule | DR/DR PA
B1 | 0.57
B2 | 1.18
B3 | 1.39 and 1.385
B4 | 1.40
B5 | 1.26
B6 | 1.24
B7 | 1.27
B8 | 1.29
B9 | 0.65
B10 | 0.13
B11 | 0.13
B12 | 0.52
B13 | 0.39 and 0.387
B14 | 0.53
B15 | 0.12
B16 | 0.35
B17 | 0.52 and 0.524
B18 | 0.33
B19 | 0.35
B20 | 0.28
B21 | 0.10
B22 | 0.10
B23 | 0.19

Assay: Probe fluorescence ratio response to arachidonic acid relative to ADIFAB2
Assay type: binding
Conditions: Arachidonic acid; response relative to ADIFAB2
Procedure, shortened: as §1

Molecule | DR/DR AA
B1 | 1.08
B2 | 1.30
B3 | 1.49
B4 | 1.48
B5 | 1.43
B6 | 1.42
B7 | 1.40
B8 | 1.40
B9 | 0.99
B10 | 0.23
B11 | 0.18
B12 | 1.24
B14 | 0.89
B15 | 0.24
B16 | 0.42
B17 | 0.66
B18 | 0.52
B19 | 0.67
B20 | 0.47
B21 | 0.20
B22 | 0.18
B23 | 0.29

Same assay, conditions: arachidonic acid; response relative to ADIFAB2

Molecule | DR/DR AA
B3 | 1.485
B13 | 0.72 and 0.718
B17 | 0.658

Reference: patent US20060257938A1, “Method of screening for drugs that block ligand binding to a lipid binding protein” (priority 2005, published 2006)
